How the values were obtained:
Honey (A2) toxin [1] = biological target: T1, Honey (A2) toxin (UniProt Q45894 2-1296)
Hall (A1) toxin [2] = biological target: T2, Hall (A1) toxin (UniProt P0DPI0 2-1296)
Honey (A2) toxin [3] = biological target: T1, Honey (A2) toxin; remark: listed apart in the source
Hall (A1) toxin [4] = biological target: T2, Hall (A1) toxin; remark: listed apart in the source

T1 sequence (Q45894 2-1296): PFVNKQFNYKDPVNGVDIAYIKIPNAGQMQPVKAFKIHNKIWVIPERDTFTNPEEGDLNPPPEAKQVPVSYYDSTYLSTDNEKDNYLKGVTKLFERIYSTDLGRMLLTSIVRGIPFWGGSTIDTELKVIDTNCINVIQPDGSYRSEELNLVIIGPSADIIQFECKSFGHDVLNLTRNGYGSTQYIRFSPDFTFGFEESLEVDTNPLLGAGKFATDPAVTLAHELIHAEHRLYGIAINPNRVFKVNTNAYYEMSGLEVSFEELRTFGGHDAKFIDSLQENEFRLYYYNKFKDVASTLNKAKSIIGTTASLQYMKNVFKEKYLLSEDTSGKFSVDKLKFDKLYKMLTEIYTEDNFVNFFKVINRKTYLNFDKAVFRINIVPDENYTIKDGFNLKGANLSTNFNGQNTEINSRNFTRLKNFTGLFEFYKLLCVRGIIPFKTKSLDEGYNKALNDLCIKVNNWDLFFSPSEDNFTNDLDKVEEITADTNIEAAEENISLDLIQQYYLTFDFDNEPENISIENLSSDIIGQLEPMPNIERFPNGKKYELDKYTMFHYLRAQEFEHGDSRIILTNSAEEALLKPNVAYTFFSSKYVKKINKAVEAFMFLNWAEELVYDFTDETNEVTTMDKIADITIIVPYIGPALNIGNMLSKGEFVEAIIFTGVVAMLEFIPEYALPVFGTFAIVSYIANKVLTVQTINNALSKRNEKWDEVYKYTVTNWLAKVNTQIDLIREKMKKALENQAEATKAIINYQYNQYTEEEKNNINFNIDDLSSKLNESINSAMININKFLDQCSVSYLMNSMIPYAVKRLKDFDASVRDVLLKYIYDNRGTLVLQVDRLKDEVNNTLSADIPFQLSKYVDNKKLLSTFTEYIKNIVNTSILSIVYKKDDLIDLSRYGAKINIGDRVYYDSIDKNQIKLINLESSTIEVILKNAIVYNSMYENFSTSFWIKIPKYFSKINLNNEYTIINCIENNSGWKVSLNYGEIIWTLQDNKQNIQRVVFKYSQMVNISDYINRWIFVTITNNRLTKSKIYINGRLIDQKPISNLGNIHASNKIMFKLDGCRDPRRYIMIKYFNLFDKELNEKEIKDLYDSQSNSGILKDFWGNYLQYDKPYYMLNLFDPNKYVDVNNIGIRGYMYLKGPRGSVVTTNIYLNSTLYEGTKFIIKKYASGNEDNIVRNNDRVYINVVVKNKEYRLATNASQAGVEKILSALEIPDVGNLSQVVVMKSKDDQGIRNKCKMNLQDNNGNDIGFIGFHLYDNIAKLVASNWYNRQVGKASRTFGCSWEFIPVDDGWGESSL

B1: 3D12 (wild type, as tested in Table 12) (antibody, V domains shown)
VH: QVQLVQSGGGVVHPGRSLKLSCAGSGFTFSDYDMHWVRQAPGKGLEWVAVMWFDGTEKYSAESVKGRFTISRDNSKNTLFLQMNSLRADDTAVYYCAREPDWLLWGDRGALDVWGQGTTVTVSS
VL: DIVMTQSPSTLSASVGDRVTITCRASQSISSWLAWYQQKPGKAPKLLMYEASSLESGVPSRFSGSGSGTEFTLTISSLQPDDFAAYYCQHYNTYPYTFGQGTKLEIKR
- Kd (Honey (A2) toxin [1]): 2.2 nM
- Kd (Hall (A1) toxin [2]): 0.94 nM

B2: 3D12.3-1 (RAZ1) (antibody, V domains shown)
VH: QVQLVQSGGGVVHPGRSLKLSCAGSGFTFSDYDMHWVRQAPGKGLEWVAVMWFDGTEKYSAESVKGRFTISRDNSKNTLFLQMNSLRADDTAVYYCAREPDWLLWGDRGALDVWGQGTTVTVSS
VL: DIVMTQSPSTLSASVGDRVTITCWASQSISSRLAWYQQKPGKAPKLLMYEATSLGSGVPSRFSGSGSGTEFTLTISSLQPDDFAAYYCQHYDTYPYTFGQGTKLEIKR
- fold tighter binding than wild type 3D12 (Honey (A2) toxin [3]): > 10 fold
- fold tighter binding than wild type 3D12 (Hall (A1) toxin [4]): > 10 fold
- Kd (Honey (A2) toxin [1]): 0.07 nM
- Kd (Hall (A1) toxin [2]): 0.017 nM

B3: 3D12.3-8 (antibody, V domains shown)
VH: QVQLVQSGGGVVHPGRSLKLSCAGSGFTFSDYDMHWVRQAPGKGLEWVAVIWFDGTEKYSAESVKGRFTISRDNSKNTLFLQMNSLRADDTAVYYCAREPDWLLWGDRGALDVWGQGTTVTVSS
VL: DIVMTQSPSTLSASVGDRVTITCRASQSISSWLAWYQQKPGKAPKLLMYGASSLGSGVPSRFSGSGSGTEFTLTISSLHPDDFAAYYCQHYNTYPYTFGQGTKLEIKR
- fold tighter binding than wild type 3D12 (Honey (A2) toxin [3]): > 10 fold
- fold tighter binding than wild type 3D12 (Hall (A1) toxin [4]): > 10 fold
- Kd (Honey (A2) toxin [1]): 0.067 nM
- Kd (Hall (A1) toxin [2]): 0.021 nM

B4: 3D12.3-10 (antibody, V domains shown)
VH: QVQLVQSGGGVVHPGRSLKLSCAGSGFTFSDYDMHWVRQAPGKGFEWVAVMWFDGTEKYSAESVKGRFTISRDNSKNTLFLQMNSLRADDTAVYYCAREPDRLLWGDRGALDVWGQGTTVTVSS
VL: DIVMTQSPSTLSASVGDRVTITCRASQSISSWLAWYQQKPGKAPKLLMYEASSLGRGVPSRFSGSGSGTEFTLTISSLQPDDFAAYYCQHYSTYPYTFGQGTKLEIKR
- fold tighter binding than wild type 3D12 (Honey (A2) toxin [3]): > 10 fold
- fold tighter binding than wild type 3D12 (Hall (A1) toxin [4]): > 10 fold
- Kd (Honey (A2) toxin [1]): 0.081 nM
- Kd (Hall (A1) toxin [2]): 0.028 nM

B5: AR2 (affinity improved HuC25) (antibody, V domains shown)
VH: QVQLQESGGGLVQPGGSLRLSCAASGFTFSDHYMYWVRQAPGKGLEWVATISDGGSYTYYPDSVKGRFTTSRDNSKNTLYLQMNSLRAEDTAIYYCSRYRYDDAMDYWGQGTLVTVSS
VL: EIVLTQSPATLSLSPGERATISCRASESVDSYGHSFMQWYQQKPGQAPRLLIYRASNLEPGIPARFSGSGSGTDFTLTISSLEPEDFAVYYCQQGNEVPFTFGQGTKVEIKR
- Kd (Hall (A1) toxin [2]): 0.047 nM

B6: Humanized C25 (HuC25) (antibody, V domains shown)
VH: QVQLQESGGGLVQPGGSLRLSCAASGFTFSDYYMYWVRQAPGKGLEWVATISDGGSYTYYPDSVKGRFTISRDNSKNTLYLQMNSLRAEDTAMYYCSRYRYDDAMDYWGQGTLVTVSS
VL: EIVLTQSPATLSLSPGERATISCRASESVDSYGHSFMQWYQQKPGQAPRLLIYRASNLEPGIPARFSGSGSGTDFTLTISSLEPEDFAVYYCQQSNEDPFTFGQGTKVEIKR
- Kd (Honey (A2) toxin [1]): 250 nM
- Kd (Hall (A1) toxin [2]): 1.24 nM

B7: WR1(T) (HuC25 derivative) (antibody, V domains shown)
VH: QVQLQESGGGLVQPGGSLRLSCAASGFTSSDHYMYWVRQAPGKGLEWVATISDGGSYTYYPDSVKGRFTTSRDNSKNTLYLQMNSLRAEDTAIYYCSRYRYDDAMDYWGQGTLVTVSS
VL: EIVLTQSPATLSLSPGERATISCRASESVDSYGHSFMQWYQQKPGQAPRLLIYRASNLEPGIPARFSGSGSGTDFTLTISSLEPEDFAVYYCQQGNEVPFTFGQGTKVEIKR
- Kd (Honey (A2) toxin [1]): 3.7 nM
- Kd (Hall (A1) toxin [2]): 0.31 nM

B8: AR1 (affinity improved HuC25) (antibody, V domains shown)
VH: QVQLQESGGGLVQPGGSLRLSCAASGFTFSDYYMYWVRQAPGKGLEWVATISDGGSYTYYPDSVKGRFTISRDNSKNTLYLQMNSLRAEDTAIYYCSRYRYDDAMDYWGQGTLVTVSS
VL: EIVLTQSPATLSLSPGERATISCRASESVDSYGHSFMQWYQQKPGQAPRLLIYRASNLEPGIPARFSGSGSGTDFTLTISSLEPEDFAVYYCQQGNEVPFTFGQGTKVEIKR
- Kd (Honey (A2) toxin [1]): 100 nM
- Kd (Hall (A1) toxin [2]): 0.2 nM

B9: WR1(V) (HuC25 derivative) (antibody, V domains shown)
VH: QVQLQESGGGLVQPGGSLRLSCAASGFTSSDHYMYWVRQAPGKGLEWVATISDGGSYTYYPDSVKGRFTVSRDNSKNTLYLQMNSLRAEDTAIYYCSRYRYDDAMDYWGQGTLVTVSS
VL: EIVLTQSPATLSLSPGERATISCRASESVDSYGHSFMQWYQQKPGQAPRLLIYRASNLEPGIPARFSGSGSGTDFTLTISSLEPEDFAVYYCQQGNEVPFTFGQGTKVEIKR
- Kd (Honey (A2) toxin [1]): 9 nM
- Kd (Hall (A1) toxin [2]): 0.45 nM
